37 molecules from patent US20200262867A1 (WNTRX PHARMACEUTICALS, published 2020) can be followed below.

Bridges are numbered along the chain shown (N, C = ends). Primed or numbered codes have the meaning given here. Where no end group is shown, it is not given here. [ ]: non-standard residue; d: D form. S5′ = (S)-2-(4'-pentenyl)alanine, olefinic stapling residue closed by ring-closing metathesis; NMeR′ = N-methylarginine (methylation site not shown in the text); 2Nal = N[C@@H](Cc1ccc2ccccc2c1)C(=O)O; pentenylAla = 2-(4'-pentenyl)alanine; NMeR = CN[C@@H](CCCNC(=N)N)C(=O)O; Ala(cPr) = N[C@@H](CC1CC1)C(=O)O; NMeT = CN[C@H](C(=O)O)[C@@H](C)O; NMeQ = CN[C@@H](CCC(N)=O)C(=O)O; dNMeQ = CN[C@H](CCC(N)=O)C(=O)O; Cha = N[C@@H](CC1CCCCC1)C(=O)O; NMeL = CN[C@@H](CC(C)C)C(=O)O; Cba = N[C@@H](CC1CCC1)C(=O)O; S5 = C=CCCC[C@](C)(N)C(=O)O; Nle = CCCC[C@H](N)C(=O)O; Abu = CC[C@H](N)C(=O)O; βAla = NCCC(=O)O

T1: β-catenin (UniProt P35222 1-781, limits assumed)
T1 construct: also called beta-catenin
T1 sequence (looked up): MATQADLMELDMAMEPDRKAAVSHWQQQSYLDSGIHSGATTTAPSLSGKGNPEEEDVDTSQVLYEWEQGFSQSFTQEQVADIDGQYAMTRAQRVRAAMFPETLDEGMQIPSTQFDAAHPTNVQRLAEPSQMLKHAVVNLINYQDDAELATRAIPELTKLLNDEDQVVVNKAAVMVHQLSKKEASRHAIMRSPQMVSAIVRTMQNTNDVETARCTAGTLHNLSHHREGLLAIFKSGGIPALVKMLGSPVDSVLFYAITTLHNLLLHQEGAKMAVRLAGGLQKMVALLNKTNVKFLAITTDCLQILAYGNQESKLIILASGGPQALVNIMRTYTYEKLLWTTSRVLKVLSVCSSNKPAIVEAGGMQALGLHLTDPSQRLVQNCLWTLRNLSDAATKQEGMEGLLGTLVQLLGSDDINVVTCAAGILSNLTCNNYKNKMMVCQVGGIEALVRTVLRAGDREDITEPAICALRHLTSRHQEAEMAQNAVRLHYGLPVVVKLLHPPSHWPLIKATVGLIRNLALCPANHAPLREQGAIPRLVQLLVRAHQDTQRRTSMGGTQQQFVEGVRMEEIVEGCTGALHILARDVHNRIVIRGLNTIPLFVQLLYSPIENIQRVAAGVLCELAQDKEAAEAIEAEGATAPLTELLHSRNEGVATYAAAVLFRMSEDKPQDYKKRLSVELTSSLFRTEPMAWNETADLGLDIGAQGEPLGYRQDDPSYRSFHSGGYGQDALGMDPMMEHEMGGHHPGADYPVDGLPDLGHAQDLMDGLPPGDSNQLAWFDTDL

B1: SEQ ID NO: 64 (peptide)
peptide: EHRERSLQTLR[Nle]IQR[Nle]L[2Nal]
B2: SEQ ID NO: 125 (peptide)
peptide: Ac-L[NMeQ]TLR[S5]IQ[NMeR′][S5][Cba][2Nal]-NH2
modifications: staple 6-10; not fully specified; printed as L(N-methylQ)TLRXIQ(N-methylR)X(CBA)(2-Nal)
B3: SEQ ID NO: 121 (peptide)
peptide: Ac-LQ[NMeT]LR[S5]IQR[S5][Cba][2Nal]-NH2
modifications: staple 6-10; not fully specified (residue 2); printed as L(N-methylQ)(N-methylT)LRXIQRX(CBA)(2-Nal)
B4: SEQ ID NO: 65 (peptide)
peptide: QLEHRERSLQTLRDIQRML[2Nal]
B5: SEQ ID NO: 66 (peptide)
peptide: QLEHRERSLQTLR[Nle]IQR[Nle]L[2Nal]
B6: SEQ ID NO: 67 (peptide)
peptide: QLEHRERSL[Nle]TLR[Nle]IQRML[2Nal]
B7: SEQ ID NO: 60 (peptide)
peptide: RERSLQTLR[Nle]IQR[Nle]L[2Nal]
B8: SEQ ID NO: 62 (peptide)
peptide: HRERSLQTLR[Nle]IQR[Nle]L[2Nal]
B9: SEQ ID NO: 39 (peptide)
peptide: Ac-RE[S5]SLQ[S5]LR[S5]IQR[S5]L[2Nal]-NH2
modifications: staple 10-14, 3-7; not fully specified; printed as REXSLQXLRZIQRZL(2-Nal)
B10: SEQ ID NO: 122 (peptide)
peptide: Ac-LQTLR[S5]IQR[S5][Cha][2Nal]-NH2
modifications: staple 6-10; not fully specified (residue 2); printed as L(N-methylQ)TLRXIQRX(Cha)(2-Nal)
B11: SEQ ID NO: 33 (peptide)
peptide: Ac-LQTLR[S5]IQR[S5]L[2Nal]P-NH2
modifications: staple 6-10; not fully specified; printed as LQTLRXIQRXL(2-Nal)P
B12: SEQ ID NO: 58 (peptide)
peptide: RSLQTLR[Nle]IQR[Nle]L[2Nal]
B13: SEQ ID NO: 80 (peptide)
peptide: Ac-HRE[S5′]SLQ[S5′]LR[Nle]IQR[Nle]L[2Nal]-OH
modifications: staple 4-8
B14: SEQ ID NO: 81 (peptide)
peptide: Ac-HRE[S5′]SLQ[S5′]LR[Nle]IQR[Nle][Cba][2Nal]-OH
modifications: staple 4-8
B15: SEQ ID NO: 59 (peptide)
peptide: RERSLQTLRDIQRML[2Nal]
B16: SEQ ID NO: 63 (peptide)
peptide: EHRERSLQTLRDIQRML[2Nal]
B17: SEQ ID NO: 117 (peptide)
peptide: Ac-LQTL[NMeR][S5]IQR[S5][Cba][2Nal]-NH2
modifications: staple 6-10; not fully specified (residue 2)
B18: SEQ ID NO: 94 (peptide)
peptide: Ac-HR[S5′]RSL[S5′]TLR[S5′]IQR[S5′][Cba][2Nal]-NH2
modifications: staple 11-15, 3-7
B19: SEQ ID NO: 34 (peptide)
peptide: Ac-LQTLR[S5]IQR[S5]L[2Nal][βAla][βAla]-NH2
modifications: staple 6-10; not fully specified; printed as LQTLRXIQRXL(2-Nal)(β-Ala)(β-Ala)
B20: SEQ ID NO: 27 (peptide)
peptide: Ac-LQTLR[S5]IQA[S5]L[2Nal]AA-NH2
modifications: staple 6-10; not fully specified; printed as LQTLRXIQAXL(2-Nal)AA
B21: SEQ ID NO: 89 (peptide)
peptide: R[pentenylAla][Ala(cPr)][dNMeQ][pentenylAla][Ala(cPr)]R[pentenylAla]IQR[pentenylAla][Ala(cPr)][2Nal][βAla][βAla]
modifications: staple 8-12, 2-5
B22: SEQ ID NO: 107 (peptide)
peptide: Ac-LQTLR[S5]IQR[S5][Cba][2Nal]-NH2
modifications: staple 6-10
B23: SEQ ID NO: 49 (peptide)
peptide: LR[Nle]IQR[Nle]L[2Nal][βAla][βAla]
B24: SEQ ID NO: 124 (peptide)
peptide: Ac-L[NMeQ]TL[NMeR′][S5]IQR[S5][Cba][2Nal]-NH2
modifications: staple 6-10; not fully specified; printed as L(N-methylQ)TL(N-methylR)XIQRX(CBA)(2-Nal)
B25: SEQ ID NO: 51 (peptide)
peptide: LQTLRDIQRML[2Nal]
B26: SEQ ID NO: 82 (peptide)
peptide: H-HRE[S5′]SLQ[S5′]LR[S5′]IQR[S5′][Cba][2Nal]-OH
modifications: staple 11-15, 4-8
B27: SEQ ID NO: 87 (peptide)
peptide: Ac-HRQ[S5′]SLQ[S5′]LR[S5′]IQR[S5′][Cba][2Nal]-NH2
modifications: staple 11-15, 4-8
B28: SEQ ID NO: 83 (peptide)
peptide: Ac-HRE[S5′]SLQ[S5′]LR[S5′]IQQ[S5′][Cba][2Nal]-OH
modifications: staple 11-15, 4-8
B29: SEQ ID NO: 36 (peptide)
peptide: Ac-QLEHRERSL[S5]TLR[S5]IQRML[2Nal]-NH2
modifications: staple 10-14; not fully specified; printed as QLEHRERSLXTLRXIQRML(2-Nal)
B30: SEQ ID NO: 40 (peptide)
peptide: Ac-RE[S5]SLQ[S5]LR[S5]IQR[S5]L[2Nal][βAla][βAla]-NH2
modifications: staple 10-14, 3-7; not fully specified; printed as REXaa1SLQXaa2LRXaa3IQRXaa4L(2-Nal)(β-Ala)(β-Ala)
B31: SEQ ID NO: 78 (peptide)
peptide: Ac-QLEHRERSL[S5]TLR[S5]IQR[Abu]L[2Nal][βAla][βAla]-NH2
modifications: staple 10-14
B32: SEQ ID NO: 119 (peptide)
peptide: Ac-LQTLR[S5]IQR[S5][Ala(cPr)][2Nal]-NH2
modifications: staple 6-10; not fully specified (residue 2); printed as LN(Me-Gln)TLRXIQRX(Cpa)(2-Nal)
B33: SEQ ID NO: 118 (peptide)
peptide: Ac-[NMeL]QTLR[S5]IQR[S5][Cba][2Nal]-NH2
modifications: staple 6-10; not fully specified (residue 2); printed as (Me-L)(N-MeQ)TLRXIQRX(CBA)(2-Nal)
B34: SEQ ID NO: 50 (peptide)
peptide: LR[Nle]IQR[Nle]L[2Nal]
B35: SEQ ID NO: 61 (peptide)
peptide: HRERSLQTLRDIQRML[2Nal]
B36: SEQ ID NO: 120 (peptide)
peptide: HOCH2CH2CO-LQTLR[S5]IQR[S5][Cba][2Nal]-NH2
modifications: staple 6-10; not fully specified (residue 2); printed as L(N-methylQ)TLRXIQRX(CBA)(2-Nal)
B37: SEQ ID NO: 32 (peptide)
peptide: Ac-LQTLR[S5]IQR[S5]L[2Nal]PD-NH2
modifications: staple 6-10; not fully specified; printed as LQTLRXIQRXL(2-Nal)PD

This assay concerns the target T1, β-catenin. The assay is described as follows: ALPHA Screen (BCL9/β-catenin).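 Note: bead proximity readout with the polypeptide linked to donor beads and β-catenin fixed on acceptor beads, their binding bringing the beads close enough to emit signal.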
Source text: In this assay, a polypeptide is conjugated to a donor bead and its target protein (i.e., β-catenin) is attached to an acceptor bead. When the two beads are in proximity due to the binding of the polypeptide to the target protein, a signal is generated and the binding affinity of the polypeptide can be quantitatively calculated. The assay may be conducted in the presence or absence of an unconjugated control polypeptide.
In general, IC50 refers to the concentration needed to halve the response being measured. A higher IC50 goes with lower potency. As for B1, the IC50 is 1730 nM.
The figure for B2 is 10600 nM; for B3 it is 5010 nM; for B4 it is 1640 nM.
The molecule B5 registered an IC50 of 730 nM.
In turn, B6 showed an IC50 of 1080 nM.
The molecule B7 returned an IC50 of 2420 nM.
The same measure for B8: 840 nM.
The same measure for B9: 2200 nM; for B10: 7170 nM; for B11: 11800 nM.
The same measure for B12: 2840 nM; for B13: 5330 nM; for B14: 45500 nM.
B15 showed an IC50 of 5950 nM.
In turn, B16 gave an IC50 of 2500 nM.
Regarding B17, the IC50 turned out to be 4230 nM.
As to B18, the IC50 was found to be 175 nM.
The figure for B19 is 9620 nM; for B20 it is 6120 nM; for B21 it is 2460 nM.
The figure for B22 is 316 nM; for B23 it is 6710 nM.
B24 displayed an IC50 of 2740 nM. This IC50 is about 2.4-fold lower than that of the molecule before.
The figure for B25 is 5780 nM; for B26 it is 1010 nM; for B27 it is 2660 nM.
The figure for B28 is 50000 nM.
The same measure for B29: 940 nM; for B30: 2380 nM; for B31: 90 nM.
The molecule B32 yielded an IC50 of 15800 nM.
With B33, the IC50 is 6330 nM. Against the preceding molecule, the IC50 is about 2.5-fold lower.
The molecule B34 returned an IC50 of 2540 nM. This IC50 lies about 2.5-fold lower than the previous one.
The same measure for B35: 1380 nM; for B36: 5440 nM; for B37: 12200 nM.
